Experimental findings from article PMC9400960 are described below.

The target of the data set is PABP1-190 (RRM1/2) (human, UniProt P11940 1-190). Kind of data set: MST competition.
Chain of PABP1-190 (RRM1/2) (P11940 1-190): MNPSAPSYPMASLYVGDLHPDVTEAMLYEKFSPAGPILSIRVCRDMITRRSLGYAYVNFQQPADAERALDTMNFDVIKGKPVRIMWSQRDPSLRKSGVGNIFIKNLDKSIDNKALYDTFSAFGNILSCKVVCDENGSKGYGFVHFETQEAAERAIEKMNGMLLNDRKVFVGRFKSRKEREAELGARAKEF
For the molecule AAAAAAAAAAAA (XNA, 2'-F-A in middle part; positions in Figure 2/Table 1) [AF2], the binding signal was ~4 fold higher Kd app than A12.

As to AAAAAAAAAAAA (ssRNA, N6-methyl-A in middle part; positions in Figure 2/Table 1) [m6A2], the binding signal is ~12 fold higher Kd app than A12.

For the molecule AAAAAAAAAAAA (XNA, 2'-O-methyl-A in middle part; positions in Figure 2/Table 1) [Am2], the binding signal is ~7 fold higher Kd app than A12.
